{"source": "paper PMC6192195", "about": "“Hampered motility promotes the evolution of wrinkly phenotype in Bacillus subtilis” (BMC Evolutionary Biology, 2018)", "molecules": {"B1": {"name": "SinR (wild type), master repressor of biofilm-related genes (natural protein, Bacillus subtilis)", "chain": "MIGQRIKQYRKEKGYSLSELAEKAGVAKSYLSSIERNLQTNPSIQFLEKVSAVLDVSVHTLLDEKHETEYDGQLDSEWEKLVRDAMTSGVSKKQFREFLDYQKWRKSQKEE", "notes": "SinR of Bacillus subtilis; Tetramer by analytical SEC; also called SinR^WT; wildtype SinR; source: E. coli BL21(DE3), purified (Ni-NTA, SEC)"}, "B2": {"name": "SinR-L99S variant (natural protein, Bacillus subtilis)", "chain": "B1 chain with L99S", "notes": "SinR of Bacillus subtilis with L99S, made by two-step PCR mutagenesis of the sinR construct in pET24d; L99S arose spontaneously in the wrinkly isolates (WTWS1, ΔhagWS2) during pellicle growth in the laboratory; the recombinant protein was made by site-directed mutagenesis; Tetramer by analytical SEC; source: E. coli BL21(DE3), purified (Ni-NTA, SEC)"}, "B3": {"name": "SinI^9-39 peptide (SinI protein from amino acid 9 to 39) (peptide, UniProt P23308 9-39, looked up)", "peptide": "FELDQEWVELMVEAKEANISPEEIRKYLLLN", "notes": "SinI, antagonist (anti-repressor) of SinR, Bacillus subtilis, amino acids 9-39; Synthesized with a free amine at the N-terminus and a free acid group at the C-terminus; also called SinI peptide; truncated version of SinI; source: synthetic peptide (peptides&elephants GmbH)"}, "B4": {"name": "IR-DNA (SinR operator inverted repeat) (dsDNA)", "DNA 1": "TTTGTTCTCTAAAGAGAACTTA", "DNA 2": "TAAGTTCTCTTTAGAGAACAAA"}}, "key": {"SinI (Bacillus subtilis)": {"target": "SinI (Bacillus subtilis) (UniProt P23308)", "sequence (P23308 whole entry)": "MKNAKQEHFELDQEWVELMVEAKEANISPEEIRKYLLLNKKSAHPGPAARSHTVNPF", "details": "cited from earlier work"}, "[1]": {"target": "the molecule itself", "test": "SEC; analytical SEC, Superdex 200 Increase 10/300 GL; SinR or SinR-L99S alone (tetrameric state also seen with IR-DNA)"}, "[2]": {"target": "T1, SinR (wild type), master repressor of biofilm-related genes (Bacillus subtilis, UniProt P06533 1-111)", "T1 chain": "B1 chain", "test": "ITC"}, "SinR-L99S variant [3]": {"target": "T2, SinR-L99S variant (Bacillus subtilis, UniProt P06533 1-111, L99S)", "T2 sequence": "B1 chain with L99S", "test": "ITC; first site (two-site model)"}, "SinR-L99S variant [4]": {"target": "T2, SinR-L99S variant", "test": "ITC; second site (two-site model)"}, "[5]": {"target": "B1", "test": "ITC; 250 uM SinI 9-39 peptide titrated into 25 uM SinR or SinR-L99S in the cell, 25 °C, buffer C (20 mM HEPES/NaOH, 500 mM NaCl); apparent KD; one-site model for wild type, two-sites model for L99S", "details": "both partners purified"}, "SinR-L99S variant [6]": {"target": "B2", "test": "ITC; 250 uM SinI 9-39 peptide titrated into 25 uM SinR or SinR-L99S in the cell, 25 °C, buffer C (20 mM HEPES/NaOH, 500 mM NaCl); apparent KD; one-site model for wild type, two-sites model for L99S", "details": "both partners purified"}, "SinR [7]": {"target": "T3, SinR (Bacillus subtilis 168 (sequence …, UniProt P06533 1-111))", "T3 sequence": "B1 chain", "test": "ITC; binding site 1 of two-sites model; N1 = 0.264 +/- 0.0114; ITC: buffer C (20 mM HEPES/NaOH, 500 mM NaCl; pH not stated for buffer C, 8.0 for buffers A/B), 25 °C; 30 µM SinR in cell, 150 µM IR-DNA titrated in", "details": "protein: recombinant; tags: C-terminal His6; chain copies: 4; blunt"}, "SinR [8]": {"target": "T3, SinR", "test": "ITC; binding site 2 of two-sites model; N2 = 0.143 +/- 0.0123; ITC: buffer C (20 mM HEPES/NaOH, 500 mM NaCl; pH not stated for buffer C, 8.0 for buffers A/B), 25 °C; 30 µM SinR in cell, 150 µM IR-DNA titrated in", "details": "protein: recombinant; tags: C-terminal His6; chain copies: 4; blunt"}, "SinR-L99S": {"target": "T4, SinR-L99S (Bacillus subtilis 168 (sequence …, UniProt P06533 1-111, L99S))", "T4 sequence": "B1 chain with L99S", "test": "ITC; binding site 1 of two-sites model; comparable to wild type; ITC: buffer C (20 mM HEPES/NaOH, 500 mM NaCl; pH not stated for buffer C, 8.0 for buffers A/B), 25 °C; 30 µM SinR in cell, 150 µM IR-DNA titrated in", "details": "protein: recombinant; tags: C-terminal His6; chain copies: 4; blunt"}}, "note": "Numbering of substitutions follows the chain as printed. Names may count otherwise."}
{"molecule": "SinR (from UniProt P06533)", "values": [{"measurement": "Kd", "setting": "SinI (Bacillus subtilis)", "result": "< 10", "unit": "nM"}]}
{"molecule": "B1", "values": [{"measurement": "stoichiometry N", "setting": "[1]", "result": 4}]}
{"molecule": "B2", "values": [{"measurement": "stoichiometry N", "setting": "[1]", "result": 4}]}
{"molecule": "B3", "values": [{"measurement": "Ka", "setting": "[2]", "result": "1.41e+08", "unit": "M⁻¹"}, {"measurement": "Ka", "setting": "SinR-L99S variant [3]", "result": "6.16e+06", "unit": "M⁻¹"}, {"measurement": "Ka", "setting": "SinR-L99S variant [4]", "result": "1.75e+06", "unit": "M⁻¹"}, {"measurement": "Kd", "setting": "[5]", "result": "~7", "unit": "nM"}, {"measurement": "dH", "setting": "[5]", "result": "-3.75 ± 0.136", "unit": "kcal/mol"}, {"measurement": "stoichiometry N", "setting": "[5]", "result": "1.2 ± 0.02"}, {"measurement": "KD site 1", "setting": "SinR-L99S variant [6]", "result": "~162", "unit": "nM"}, {"measurement": "KD site 2", "setting": "SinR-L99S variant [6]", "result": "~571", "unit": "nM"}, {"measurement": "dH binding event 1", "setting": "SinR-L99S variant [6]", "result": "-3.93 ± 1.45", "unit": "kcal/mol"}, {"measurement": "dH binding event 2", "setting": "SinR-L99S variant [6]", "result": -15.2, "unit": "kcal/mol"}, {"measurement": "stoichiometry N", "setting": "SinR-L99S variant [6]", "result": "~1.35"}]}
{"molecule": "B4", "values": [{"measurement": "Kd", "setting": "SinR [7]", "result": "~121", "unit": "nM"}, {"measurement": "Kd", "setting": "SinR [8]", "result": "~6", "unit": "nM"}, {"measurement": "Kd", "setting": "SinR-L99S", "result": "~99", "unit": "nM"}]}
